Reference: article PMC9205905, “Core and rod structures of a thermophilic cyanobacterial light-harvesting phycobilisome” (Nature Communications, 2022)

Target: the molecule itself
Assay: cryo-EM structure; PC rods dissociated from intact PBSs on the grid by dilution with 10 mM phosphate buffer (phosphate below 0.5 M); single-particle cryo-EM, no symmetry, 4.2 Å

B1: PC monomer (CpcA/CpcB αβ monomer) (complex)
chain 1: not shown
chain 2: MLDAFAKVVAQADARGEFLTNAQFDALSNLVKEGNKRLDAVNRITSNASTIVANAARALFAEQPQLIQPGGNAYTNRRMAACLRDMEIILRYVTYAILAGDSSVLDDRCLNGLRETYQALGTPGSSVAVAIQKMKDAAIAIANDPNGITPGDCSALMSEIAGYFDRAAAAVA
modifications: phycocyanobilin (PCB) at residue 84 (α84) | phycocyanobilin (PCB) at residues 84 and 155 (β84, β155)
Question: For B1, which “stoichiometry N” value is on record?
Answer: The value was 6.
